Data reported in patent US20210061908A1 (IOMX THERAPEUTICS, published 2021).

T1: extracellular domain (ECD) of murine IGSF11, biotinylated (mouse, UniProt P0C673 23-240, biotinylated (site not stated))
T1 construct: also called Mouse IGSF11; murine IGSF11 protein
T1 sequence: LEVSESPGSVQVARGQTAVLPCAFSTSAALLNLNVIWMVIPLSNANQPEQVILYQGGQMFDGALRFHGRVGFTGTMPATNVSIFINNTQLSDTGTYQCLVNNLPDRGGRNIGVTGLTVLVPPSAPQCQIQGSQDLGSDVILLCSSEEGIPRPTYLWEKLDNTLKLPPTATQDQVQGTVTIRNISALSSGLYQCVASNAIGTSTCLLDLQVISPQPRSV

T2: extracellular domain (ECD) of human IGSF11 (VSIG3), biotinylated (human, UniProt Q5DX21 23-241, biotinylated (site not stated))
T2 construct: also called human IGSF11 protein
T2 sequence: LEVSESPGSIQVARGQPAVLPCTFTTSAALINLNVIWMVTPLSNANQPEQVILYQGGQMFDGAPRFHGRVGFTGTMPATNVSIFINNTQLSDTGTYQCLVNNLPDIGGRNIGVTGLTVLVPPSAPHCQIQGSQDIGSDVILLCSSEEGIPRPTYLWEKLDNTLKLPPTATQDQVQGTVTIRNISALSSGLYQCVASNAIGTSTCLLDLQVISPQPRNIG


Tests used:
[1] = biological target: T1, extracellular domain (ECD) of murine …; assay: ELISA, scFv; RFU grade (*** >1.0, ** 0.5-1.0, * 0.1-0.5)
[2] = biological target: T2, extracellular domain (ECD) of human …; assay: as above

relative fluorescent units (RFU), ELISA [1] [rfu] | relative fluorescent units (RFU), ELISA [2] [rfu] | Binder
> 1 | > 1 | A-001 (scFv format) (scFv, V domains shown, scFv) VH: EVQLVESGGGLVKPGGSLRLSCAASGFTFSSYSMNWVRQAPGKGLEWVSSISSSSSYIYYADSVKGRFTISRDNAKNSLYLQMNSLRAEDTAVYYCVRSIIVQALGITSVFDIWGQGTMVTVSS VL: AIRLTQSPSSLSASVGDRVTISCRASQIISNHLNWYQQKPGKAPKLLIYAASRLQTGVPSRFSGSGSETDYTLTISSLQPEDFATYYCQQSYSNPRTFGHGTKVEIK
> 1 | 0.5 to 1 | A-004 (scFv format) (scFv, V domains shown, scFv) VH: EVQLVESGGGLVKPGGSLRLSCAASGFTFSSYSMNWVRQAPGKGLEWVSSISSSSSYIYYADSVKGRFTISRDNAKNSLYLQMNSLRAEDTAVYYCARGQLLWFGESALIDAFDIWGQGTMVTVSS VL: EIVLTQSPSSLSASVGDRVTITCRASQSISSYLNWYQLKPGKAPKLLIYAASILQSGVPSRFSGSGSGTDFTLTISSLQPEDFAAYYCQQSYSTPRTFGQGTKLEIK
0.1 to 0.5 | 0.1 to 0.5 | A-031 (scFv format) (scFv, V domains shown, scFv) VH: not shown VL: EIVLTQSPGTVSLSPGERATLSCRASQSVPKNYLAWFQQKPGQAPRLVIHTASSRAPGIPDRFTGSGSGTDFTLTISRLEPEDFAVYYCQQYGTSPNTFGQGTKLDIK
0.1 to 0.5 | 0.1 to 0.5 | A-032 (scFv format) (scFv, V domains shown) VH: QVQLVQSGAEVKKPGASVKVSCKASGYTFTGYYMHWVRQAPGQGLEWMGWMNPNSGNTGYAQKFQGRVTMTRNTSISTAYMELSSLRSEDTAVYYCARGGQQQLVLDDYWGQGTLVTVSS VL: not shown
0.1 to 0.5 | 0.1 to 0.5 | A-033 (scFv format) (scFv, V domains shown, scFv) VH: QVQLVQSGAEVKKPGASVKVSCKASGYTFTSYGISWVRQAPGQGLEWMGWISAYNGNTNYAQKLQGRVTMTTDTSTSTAYMELRSLRSDDTAVYYCARDHSIVGATTFDYWGQGTLVTVSS VL: not shown
0.5 to 1 | > 1 | A-034 (scFv format) (scFv, V domains shown, scFv) VH: QMQLVQSGGGLVKPGGSLRLSCAASGFTFSSYTMNWVRQAPGKGLEWVSSISSIGTYIYYADSVKGRFTISRDNAKNSLYLQMNSLRAEDTAVYYCARVLLSGSYYGYFDSWGQGTLVTVSS VL: QSVLTQPPSVSGAPGQRVTISCTGSSSNIGAGYDVHWYQQLPGTAPKLFIYGNSNRPSGVPDRFSGSKSGTSASLAITGLQAEDEADYYCQSYDSSLSGYVFGTGTKVTVL
> 1 | 0.5 to 1 | A-035 (scFv format) (scFv, V domains shown, scFv) VH: QVQLVQSGAEVKKPGASVKVSCKASGYTFTGYYMHWVRQAPGQGLEWMGWINPNSGNTGYAQKFQGRVTMTRNTSISTAYMELSSLRSEDTAVYYCARGRLERGYWYFDLWGRGTLVTVSS VL: NFMLTQPHSVSESPGRTVTISCTRSSGSITSNYVQWYQQRPGSAPTILIYEDKERPSEVPDRFSGSIDISSNSASLTISGLKTEDEADYYCQSYGGTSQGVLFGGGTKVTVL
0.1 to 0.5 | 0.1 to 0.5 | A-030 (scFv format) (scFv, V domains shown, scFv) VH: QVQLVQSGAEVKKPGASVKVSCKASGYTFTGYYMHWVRQAPGQGLEWMGWINPNSGNTGYAQKFQGRVTMTRNTSISTAYMELSSLRSEDTAVYYCARGGQQQLVLDDYWGQGTLVTVSS VL: DIQLTQSPSTLSASVGDRVTITCRASQSIGGWLAWYQHKPGKAPKLLIYAASSLQSGVPSRFSGSGSGTDFTLTISSLQPEDFATYYCRQSYSTPPTFGQGTKVEIK
0.1 to 0.5 | 0.1 to 0.5 | A-036 (scFv format) (scFv, V domains shown, scFv) VH: QVQLVQSGAEVKKPGASVKVSCKASGYTFTGYYMHWVRQAPGQGLEWMGWINPNSGGTNYAQKFQGRVTMTRNTSISTAYMELSSLRSEDTAVYYCARGGQQQLVLDDYWGQGTLVTVSS VL: not shown
0.1 to 0.5 | 0.1 to 0.5 | A-037 (scFv format) (scFv, V domains shown, scFv) VH: QVQLVQSGAEVKKPGASVKVSCKASGYTFTGYYMHWVRQAPGQGLEWMGWINPNSGNTGYAQKFQGRVTMTRNTSISTAYMELSSLRSEDTAVYYCARGGQQQLVLDDYWGQGTLVTVSS VL: NFMLTQPHSVSESPGKTVTISCTGSSGSIASNYVQWYQQRPGSAPTTVIYEDNQRPSGVPDRFSGSIDSSSNSASLTISGLKTEDEADYYCQSYDSSNQRVFGGGTKLTVL
0.5 to 1 | 0.5 to 1 | A-012 (scFv format) (scFv, V domains shown, scFv) VH: EVQLLESGGGLIQPGGSLRLSCAVSGFTVSSNYMSWVRQAPGKGLEWVSVIYSGGSTYYADSVKGRFTISRDNSKNTLYLQMNSLRAEDTAVYYCARGNPYYYGDLQVNFDYWGQGTLVTVSS VL: QAVVTQEPSLTVSPGGTVTLTCASSTGAVTSGYYPNWFQQKPGQAPRALIYSTSNKHSWTPARFSGSLLGGKAALTLSGVQPEDEAEYYCLLYYGGAWVFGGGTKLTVL
0.1 to 0.5 | 0.5 to 1 | A-002 (scFv format) (scFv, V domains shown, scFv) VH: EVQLVESGGGLIQPGGSLRLSCAASGFTVSSNYMSWVRQAPGKGLEWVSVIYSGGSTYYADSVKGRFTISRDNSKNTLYLQMNSLRAEDTAVYYCARGNPYYYGDLQVNFDYWGQGTLVTVSS VL: QAVVTQEPSLTVSPGGTVTPTCGSSTGAVTSGNLPNWFQQKPGQAPRALIYSTSNKHSWTPARISGSLLGGKAALTLSGVQPEDEAEYYCLLYYGGAWVFGGGTKLTVL
0.1 to 0.5 | 0.5 to 1 | A-005 (scFv format) (scFv, V domains shown, scFv) VH: EVQLVESGGGLIQPGGSLRLSCAASGFTVSSNYMSWVRQAPGKGLEWVSVIYSGGSTYYADSVKGRFTISRDNSKNTLYLQMNSLRAEDTAVYYCARGNPYYYGDLQVNFDYWGQGTLVTVSS VL: QAVVTQEPSLTVSPGETVTLTCASSTGAVTSGYYPNWFQQRPGQAPRALIYSTSNKDSWTPARFSGSLLGGKAALTLSGVQPEDEAEYYCLLYYGGAWVFGGGTKLTVL
0.5 to 1 | 0.5 to 1 | A-006 (scFv format) (scFv, V domains shown, scFv) VH: EVQLVESGGGLIQPGGSLRLSCAASGFTVSSNYMSWVRQAPGKGLEWVSVIYSGGSTYYADSVKGRFTISRDNSKNTLYLQMNSLRAEDTAVYYCARGNPYYYGDLQVNFDYWGQGTLVTVSS VL: QAVVTQEPSLTVSPGGTVTLTCASSTGAVTSGYYPNWFQQKPGQAPRPLIYSTSNKHSWTPARFSGSLLGGKAALTLSGVQPDDEAEYYCLLYYGGDWVFGGGTKLTVL
0.5 to 1 | 0.5 to 1 | A-013 (scFv format) (scFv, V domains shown, scFv) VH: EVQLVESGGGLIQPGGSLRLSCAASGFTVSSNYMSWVRQAPGKGLEWVSVIYSGGSTYYADSVKGRFTISRDNSKNTLYLQMNSLRAEDTAVYYCARGNPYYYGDLQVNFDYWGQGTLVTVSS VL: QAVVTQEPSLTVSPGGTVTLTCASSTGAVTSAYYPNWFQQKPGQAPRALIYSTSNKHSWTPARFSGSLLGGKAALTLSGVQPEDEADYYCLLYYGGAWVFGGGTKLTVL
0.5 to 1 | 0.5 to 1 | A-007 (scFv format) (scFv, V domains shown, scFv) VH: not shown VL: QSALTQPASVSGSPGQSITIACTGSSSDIGSFSYVSWYQQRPGKAPTLIIYGVNNRPLGVSRRFSGSKSGNTASLSISGLQAEDEADYYCSSYTRRSTVIFGGGTKLTVL
> 1 | > 1 | A-008 (scFv format) (scFv, V domains shown, scFv) VH: QLQLQESGPGLVKPSETLSLTCTVSGGSISSSGYYWGWIRQPPGKGLEWIGSIYYSGSTYYNPSLKSRVTISVDTSKNQFSLKLSSVTAADTAVYYCARHRVRFGEFDAFDIWGQGTMVTVSS VL: QAVLTQPPSVSGAPGERVTLSCTGTSSNVGADFDVHWYQQFPGTAPRLLIFGSDNRPSGVPDRFSGSKSGTSASLAITGLQVEDEADYYCQAYDVRLSGWVFGGGTKLTVL
0.1 to 0.5 | 0.5 to 1 | A-009 (scFv format) (scFv, V domains shown, scFv) VH: QVQLVQSGAEVKKPGSSVKVSCKASGGTFSSYAISWVRQAPGQGLEWMGGIIPIFGTANYAQKFQGRVTITADESTSTAYMELSSLRSEDTAVYYCARGRGFGELYFDYWGQGTLVTVSS VL: ETTLTQSPATLSVSPGERATLSCRASQGVRSNIAWYQQKPGQAPRLLIYDSSTRATGIPARFSGSGSGTEFTLTISSLQSEDFAVYSCQQYKNWPRTFGQGTKVEIK
0.5 to 1 | 0.5 to 1 | A-010 (scFv format) (scFv, V domains shown, scFv) VH: QVQLVQSGAEVKKPGASVKVSCKASGYTFTSYGISWVRQAPGQGLEWMGWISAYNGNTNYAQKLQGRVTMTTDTSTSTAYMELRSLRSDDTAVYYCARVPAWSGQFDYWGQGTLVTVSS VL: QSALTQPASVSGSPGQSITISCTGSSSDVGGYNYVSWYQQYPGKAPKLMIYDVRSRPSGVSNRFSGSKSGNTASLTISGLQAEDEADYYCTSYTSSNTLVIFGGGTKVTVL
